Results taken from patent publication US11306331B2, “Processes for the production of hydroxycinnamic acids using polypeptides having tyrosine ammonia lyase activity” (CysBio ApS, priority 2014, dated 2022).

B1: HaXAL2: tyrosine ammonia lyase derived from Herpetosiphon aurantiacus, protein GI 159898927, 552 aa (protein, listed as Herpetosiphon aurantiacus)
chain: MRHQVTLTGAGLTIEDVVRVARHHQPVGLTDNPEILQRIEDSCAYINDAVKASKPVYGVTTGFGGMADVVISSEEAADLQNNAIWYHKTGAGKLLPLADVRAAMLLRANSHMRGVSGIRLEIIQRMMTFLNANVTPHVREFGSIGASGDLVPLISITGALLGTDPAFRVDFDGENIDCLEALERLNLPRLELLPKEGLAMMNGTSVMTGIASNVLHDARILLGLALNIHGLMIQGLQGTNQSFHPFIHQHKAHTGQVWAADHMLQILEGSALSRDELDGRHEYREGDLIQDRYSLRCLPQFLGPIIDGMAYITHHLRVEINSANDNPLINTEAGASYHGGNFLGQYIGVGMDQLRYYMGLMAKHLDVQIALLVSPQFNNGLSASLVGNTDRKVNMGLKGLQISGNSIMPILGFLGNSLADRFPTHAEQFNQNINSQGFGSANLARQTIETLQQYIAIALIFGVQAVDLRTFKRTGHYNAVETLSPMTAKLYSAMREVVGKPISHERPYIWNDNEQALEQHISAIVSDITNDGIIPQAIQETLDSLRSIILFA
B2: RtXAL: previously described aromatic amino acid lyase of Rhodosporidium toruloides/Rhodotorula glutinis, protein GI 129593 (protein, UniProt P11544 1-716, looked up)
Phenylalanine/tyrosine …: MAPSLDSISHSFANGVASAKQAVNGASTNLAVAGSHLPTTQVTQVDIVEKMLAAPTDSTLELDGYSLNLGDVVSAARKGRPVRVKDSDEIRSKIDKSVEFLRSQLSMSVYGVTTGFGGSADTRTEDAISLQKALLEHQLCGVLPSSFDSFRLGRGLENSLPLEVVRGAMTIRVNSLTRGHSAVRLVVLEALTNFLNHGITPIVPLRGTISASGDLSPLSYIAAAISGHPDSKVHVVHEGKEKILYAREAMALFNLEPVVLGPKEGLGLVNGTAVSASMATLALHDAHMLSLLSQSLTAMTVEAMVGHAGSFHPFLHDVTRPHPTQIEVAGNIRKLLEGSRFAVHHEEEVKVKDDEGILRQDRYPLRTSPQWLGPLVSDLIHAHAVLTIEAGQSTTDNPLIDVENKTSHHGGNFQAAAVANTMEKTRLGLAQIGKLNFTQLTEMLNAGMNRGLPSCLAAEDPSLSYHCKGLDIAAAAYTSELGHLANPVTTHVQPAEMANQAVNSLALISARRTTESNDVLSLLLATHLYCVLQAIDLRAIEFEFKKQFGPAIVSLIDQHFGSAMTGSNLRDELVEKVNKTLAKRLEQTNSYDLVPRWHDAFSFAAGTVVEVLSSTSLSLAAVNAWKVAAAESAISLTRQVRETFWSAASTSSPALSYLSPRTQILYAFVREELGVKARRGDVFLGKQEVTIGSNVSKIYEAIKSGRINNVLLKMLA
B3: RmXALLI: RmXAL expressed from a synthetic gene codon optimized for Lactococcus lactis (SEQ ID NO: 57) (protein)
chain: MAPSVDSIATSVANSLSNGLHAAAAANGGDVHKKTAGAGSLLPTTETTQLDIVERILADAGATDQIKLDGYTLTLGDVVGAARRGRSVKVADSPHIREKIDASVEFLRTQLDNSVYGVTTGFGGSADTRTEDAISLQKALLEHQLCGVLPTSMDGFALGRGLENSLPLEVVRGAMTIRVNSLTRGHSAVRIVVLEALTNFLNHGITPIVPLRGTISASGDLSPLSYIAASITGHPDSKVHVDGKIMSAQEAIALKGLQPVVLGPKEGLGLVNGTAVSASMATLALTDAHVLSLLAQALTALTVEAMVGHAGSFHPFLHDVTRPHPTQIEVARNIRTLLEGSKYAVHHETEVKVKDDEGILRQDRYPLRCSPQWLGPLVSDMIHAHAVLSLEAGQSTTDNPLIDLENKMTHHGGAFMASSVGNTMEKTRLAVALMGKVSFTQLTEMLNAGMNRALPSCLAAEDPSLSYHCKGLDIAAAAYTSELGHLANPVSTHVQPAEMGNQAINSLALISARRTAEANDVLSLLLATHLYCVLQAVDLRAMEFEHTKAFEPMVTELLKQHFGALATAEVEDKVRKSIYKRLQQNNSYDLEQRWHDTFSVATGAVVEALAGQEVSLASLNAWKVACAEKAIALTRSVRDSFWAAPSSSSPALKYLSPRTRVLYSFVREEVGVKARRGDVYLGKQEVTIGTNVSRIYEAIKSGCIAPVLVKMMA
modifications: RmXal coding sequence (codon optimized for Lactococcus lactis)

How the values were obtained:
[1] = system: E. coli BL21(DE3)pLysS cells; test: Specific production of pHCA and CA by E. coli expressing TAL/PAL enzymes; type: cell-based, Escherichia coli; settings: 24 h after supplementation, +/- standard deviation
Method: Plasmids carrying the genes were transformed into electrocompetent E. coli BL21(DE3)pLysS cells (Life Technologies) and selected on LBplates containing 50 ug/mL streptomycin. The strains were grown in M9 minimal media containing glucose as a carbon source, and expression was induced by adding 1 mM IPTG at an optical density at 600 nm of 0.6. After three hours of growth at 30° C. the cultures were supplemented with 2 mM tyrosine, phenylalanine or histidine. After further 24 hours, samples were withdrawn for determination of the optical density at 600 nm and for the isolation of the supernatant.
The concentration of pHCA and CA in the supernatant was quantified by high performance (HPLC) and compared to chemical standards. HPLC was done on a Thermo setup using a HS-F5 column and mobile phases: 5 mM ammonium formate pH 4.0 (A) and acetonitrile (B) at 1.5 mL min-1, using a gradient elution starting at 5% B. From 0.5 min after injection to 7 min, the fraction of B increased linearly from 5% to 60%, and between 9.5 min and 9.6 the fraction of B decreased back to 5%, and remaining there until 12m pHCA and CA were quantified by measuring absorbance at 333 nm and 277 nm, respectively. The production was tested without addition of precursors or the addition of either phenylalanine or tyrosine to the growth medium.
The specific production was calculated as micromolar (μM) concentration per unit of optical density of the culture at 600 nm, and standard deviations were calculated based on triplicate experiments. HaXAL1, HaXAL2 and FjXAL are the most specific enzymes and those that reach the highest yields.

[2] = system: Saccharomyces cerevisiae CEN.PK102-5B; test: Specific production of pHCA and CA by S. cerevisiae expressing TAL enzymes; type: cell-based; settings: 72 h, 30° C., +/- standard deviation
Description: A number of the previously characterized enzymes were characterized when expressed in Saccharomyces cerevisiae. Genes encoding HaXAL1 and FjXAL were synthesized with codon optimization for S. cerevisiae available by GeneArt (Life Technologies), and were named HaXAL1 Sc and FjXALSc. Genes were amplified using the oligonucleotide (refer to specific name) shown in Table 6, and inserted by uracil-excision into the vector pCfB132 together with the PPGK1 promoter amplified by primers PPGK1_fw and PPGK1_rv (Jensen et al., 2014). The finished plasmids were transformed into Saccharomyces cerevisiae CEN.PK102-5B (MAT a ura3-52 his3Δ1 leu2-3/112 MAL2-8c SUC2) using a standard lithium acetate transformation protocol and selected for on synthetic drop-out media plates lacking uracil.
Cells were grown in SC medium without uracil, and diluted into Delft medium or Feed-In-Time (FIT) medium (m2p-labs) supplemented with leucine and histidine. After 72 h of incubation at 30° C. with shaking, samples were taken for the analysis of optical density at 600 nm and for clarification of the supernatant, which was analyzed by HPLC as described in example 1. The specific production was calculated as micromolar (μM) concentration per unit of optical density of the culture at 600 nm and is shown in Table 4.

[3] = system: L. lactis NZ9000ΔldhΔldhB; test: Specific pHCA and CA productivity of L. lactis strains expressing TAL/PAL enzymes in CDM; type: cell-based, Lactococcus lactis; settings: CDM
Description: The synthetic RsXALI (protein GI 129592) and RmXALI (protein GI 126464011) genes, codon optimized for Lactococcus lactis (GeneArt), were cloned into the nisin inducible expression vector pNZ8048 (Kuipers et al., 1998) as follows: RsXALI (SEQ ID NO: 56) and RmXALI (SEQ ID NO: 57) genes and the vector were PCR amplified using the primers listed in Table 7, and were assembled in a single-tube isothermal reaction using the Gibson Assembly Master Mix (New England Biolabs). Reaction products were ethanol-precipitated and suspended in double distilled water before transformation into L. lactis by electroporation as described by Holo and Nes (1995). The synthetic genes encoding SeSam8, R_XAL, HaXAL1 and FjXAL described in a previous example above were amplified by PCR using the primer pairs listed in Table 1, digested with specific restriction enzymes, and cloned in-between the NcoI and XbaI restriction sites of pNZ8048. The plasmids were obtained and maintained in L. lactis NZ9000 (Kuipers et al., 1998) and the gene sequences of the different constructs were verified by sequencing.
To assess pHCA production, TAL-expression vectors were transformed into a strain derived from NZ9000, but with deletion of the genes Idh and dhB (NZ9000ΔldhΔldhB). A control strain was also constructed by transformation of NZ9000ΔldhΔldhB with empty expression vector pNZ8048.
For molecular biology procedures, L. lactis strains were cultivated as batch cultures (flasks) without aeration in M17 medium (Difco™, USA) supplemented with 0.5% glucose (w/v) at 30° C. To assess pHCA production, strains were grown as static cultures in chemically defined medium (CDM; Poolman and Konings, 1988) containing 1% glucose (wt/vol) without pH control (initial pH 6.5 or 7.0) and supplemented with 1.7 or 3.7 mM L-tyrosine. Plasmid selection was achieved by addition of 5 μg mL^−1 chloramphenicol to the growth medium. Growth was monitored by measuring OD600. For heterologous expression of cloned tyrosine ammonia lyases, L. lactis strains were grown in CDM and nisin (1.5 μg L^−1) was added at an OD600 of 0.3-0.4. Samples (1 mL) of cultures were collected at different points during growth; centrifuged (16,100×g, 10 min, 4° C.) and the supernatants stored at −20° C. until analysis by HPLC as described in a previous example above. […] The first six columns are results from media containing 1.7 mM tyrosine. The seventh and ninth columns represent samples from strains grown in media containing 3.7 mM tyrosine, and the eighth and ninth columns are data from media with 68.5 mM 3-(N-morpholino)propanesulfonic acid (MOPS) and initial pH adjusted to 7.0 rather than 6.5.

Molecule | Specific production of CA ([1]; M9 + Phe (2 mM)) | Specific production of pHCA ([1]; M9 + Phe (2 mM)) | Specific production of CA ([1]; M9 + Tyr (2 mM)) | Specific production of pHCA ([1]; M9 + Tyr (2 mM)) | Specific production of CA ([2]; Delft + Tyr (10 mM)) | Specific production of pHCA ([2]; Delft + Tyr (10 mM)) | Specific production of CA ([2]; Delft medium) | Specific production of pHCA ([2]; Delft medium) | Specific production of CA ([2]; FIT + Tyr (10 mM)) | Specific production of pHCA ([2]; FIT + Tyr (10 mM)) | Specific production of CA ([2]; FIT medium) | Specific production of pHCA ([2]; FIT medium) | production of CA [3]
B1 | 0.4 ± 0.02 μM OD600-1 | 20 ± 4.4 μM OD600-1 | 0 ± 0 μM OD600-1 | 61 ± 9.7 μM OD600-1 | 0 ± 0 μM OD600-1 | 20 ± 6.3 μM OD600-1 | 0 ± 0 μM OD600-1 | 22 ± 5.2 μM OD600-1 | 0 ± 0 μM OD600-1 | 26 ± 11 μM OD600-1 | 0 ± 0 μM OD600-1 | 30 ± 16 μM OD600-1 | 
B2 | 180 ± 16 μM OD600-1 | 7.2 ± 1.3 μM OD600-1 | 5.9 ± 6.1 μM OD600-1 | 170 ± 10 μM OD600-1 | 21 ± 1.9 μM OD600-1 | 89 ± 13 μM OD600-1 | 18 ± 0.9 μM OD600-1 | 20 ± 0.8 μM OD600-1 | 57 ± 4.1 μM OD600-1 | 110 ± 8.8 μM OD600-1 | 88 ± 2 μM OD600-1 | 67 ± 4.3 μM OD600-1 | 
B3 |  |  |  |  |  |  |  |  |  |  |  |  | the only enzyme resulting in production of CA
